Positions count from the first letter of the chain named. Names and notes keep the numbering of the source.
B1: KdpFABC (nucleotide / vanadate rows, site in KdpB) (Escherichia coli K-12) (protein)
chain: MSRKQLALFEPTLVVQALKEAVKKLNPQAQWRNPVMFIVWIGSLLTTCISIAMASGAMPGNALFSAAISGWLWITVLFANFAEALAEGRSKAQANSLKGVKKTAFARKLREPKYGAAADKVPADQLRKGDIVLVEAGDIIPCDGEVIEGGASVDESAITGESAPVIRESGGDFASVTGGTRILSDWLVIECSVNPGETFLDRMIAMVEGAQRRKTPNEIALTILLIALTIVFLLATATLWPFSAWGGNAVSVTVLVALLVCLIPTTIGGLLSAIGVAGMSRMLGANVIATSGRAVEAAGDVDVLLLDKTGTITLGNRQASEFIPAQGVDEKTLADAAQLASLADETPEGRSIVILAKQRFNLRERDVQSLHATFVPFTAQSRMSGINIDNRMIRKGSVDAIRRHVEANGGHFPTDVDQKVDQVARQGATPLVVVEGSRVLGVIALKDIVKGGIKERFAQLRKMGIKTVMITGDNRLTAAAIAAEAGVDDFLAEATPEAKLALIRQYQAEGRLVAMTGDGTNDAPALAQADVAVAMNSGTQAAKEAGNMVDLDSNPTKLIEVVHIGKQMLMTRGSLTTFSIANDVAKYFAIIPAAFAATYPQLNALNIMCLHSPDSAILSAVIFNALIIVFLIPLALKGVSYKPLTASAMLRRNLWIYGLGGLLVPFIGIKVIDLLLTVCGLV
B2: KdpFABC (nucleotide / vanadate rows, site in KdpB) (Escherichia coli K-12; F232A) (protein)
chain: B1 chain with F232A

Substrate: Nc1ncnc2c1ncn2[C@@H]1O[C@H](COP(=O)(O)OP(=O)(O)OP(=O)(O)O)[C@@H](O)[C@H]1O
Assay: purified protein
Conditions: 1 mM KCl, 37 °C

Protein	Km	Km (K+-uncoupled variant)
B1	150 µM	–
B2	–	100 µM

Reference: article PMC8385062, “Deciphering ion transport and ATPase coupling in the intersubunit tunnel of KdpFABC” (Nature Communications, 2021)
